For the data set, the system named is T1, epitope-tagged (V5) full-length murine TLT-1 (TREM-like transcript-1) expressed in HEK293T cells.
T1 sequence: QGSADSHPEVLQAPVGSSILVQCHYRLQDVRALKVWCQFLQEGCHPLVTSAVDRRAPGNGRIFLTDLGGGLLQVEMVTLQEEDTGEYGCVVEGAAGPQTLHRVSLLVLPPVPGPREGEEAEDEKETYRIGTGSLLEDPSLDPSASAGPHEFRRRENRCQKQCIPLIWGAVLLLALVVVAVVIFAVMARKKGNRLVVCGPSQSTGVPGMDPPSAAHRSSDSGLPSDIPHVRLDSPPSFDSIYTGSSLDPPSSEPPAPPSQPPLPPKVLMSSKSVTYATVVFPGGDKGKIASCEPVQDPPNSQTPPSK

For the substance Syk, the “tyrosine phosphorylation of TLT-1 (anti-V5 immunoprecipitation, antiphosphotyrosine immunoblot)” value was “TLT-1 is phosphorylated by Src but not Syk”.
